According to PMC6321344, “Evaluation of [^68Ga]Ga-DOTA-TCTP-1 for the Detection of Metalloproteinase 2/9 Expression in Mouse Atherosclerotic Plaques” (Molecules, 2018):
Positions of bridges follow the written chain, without caps; N, C: chain ends. Residues, ends and D or L forms follow the SMILES beside them. *: point of attachment. X1 = O=C(O)CN1CCN(CC(=O)O)CCN(CC(=O)NCCOCCOCCN*)CCN(CC(=O)O)CC1

Assays:
[1] = in vivo; settings: both sexes, C57BL/6N, mouse, iv, 18 MBq, total radioactivity, Tracer uptake
Text: (§1) Sixteen (eleven males, five females) low-density lipoprotein receptor deficient mice expressing only apolipoprotein B100 (LDLR^-/-ApoB^100/100, Jackson Laboratory, Bar Harbor, ME, USA, strain #003000) were used. Mice were kept on a Western-type diet for 4.4 months starting at the age of 3.5 months. Forty-two percent of their calorific intake consisted of fat and 0.2% cholesterol (TD 88137, Harlan Teklad, Harlan Laboratories, Madison, WI, USA). Nine C57BL/6N mice on a regular chow diet (five males, four females) were used as controls. The mean age and weight of the studied mice at the time of tracer injection were 8.2 ± 0.70 months and 38 ± 8.0 g for the LDLR^-/-ApoB^100/100 mice, and 3.9 ± 0.86 months and 31 ± 5.8 g for the controls. During the studies, mice were housed under standard conditions (light and humidity) with ad libitum access to water and food. The study protocol was approved by the National Animal Experiment Board in Finland and the Regional State Administrative Agency for Southern Finland, and carried out in compliance with the relevant European Union directives. The high-performance liquid chromatography (HPLC) system was a LaChrom instrument (Hitachi; Merck Darmstadt, Germany), including a pump L7100, an ultraviolet (UV) detector L-7400, an interface D-7000 and a computerized data acquisition and processing software. The reversed-phase HPLC column (μBondapak 10 μm C18, 7.8 × 300 mm, pore size 125 Å) was purchased from Waters Corporation, Milford, MA, USA. The online radioisotope detector (Radiomatic 150 TR, Flow Scintillation Analyzer) was from Packard, Meriden, CT, USA. The precursor compound DOTA-TCTP-1 (Figure 1) was obtained as a custom synthesis from Peptide Specialty Laboratories GmbH (Heidelberg, Germany).
(§2) Isoflurane anesthetized mice were intravenously (i.v.) injected with 18 ± 2.7 MBq (in 50–100 µL) of [^68Ga]Ga-DOTA-TCTP-1 via the tail vein. At 60 min after tracer injection, a blood sample was obtained by cardiac puncture and animals were killed by cervical dislocation. Various tissues were excised, weighed, and measured for radioactivity on a gamma counter (Triathler 3”, Hidex, Turku, Finland). Radioactivity values were normalized by the injected radioactivity dose decay with a delta time between injection and measurement, animal weight, and the weight of tissue. Results are expressed as the percentage of injected radioactivity dose per gram of tissue (%ID/g).

[2] = in vivo; parameters: species or system mouse; settings: both sexes, iv, 18 MBq, total radioactivity, Tracer uptake
Text: as §1, §2

[3] = in vivo; settings: LDLR^-/-ApoB^100/100, mouse, iv, 11 MBq, total radioactivity
Method: A subset of mice (three atherosclerotic and three healthy controls) were imaged using a small-animal PET/computed tomography (CT) scanner (Inveon Multimodality; Siemens Medical Solutions, Knoxville, TN, USA). The mice were anesthetized using 1.5% isoflurane, and their temperature was maintained using a heating pad throughout the imaging. Mice were i.v. injected with 11 ± 0.86 MBq (in 50–100 µL) of [^68Ga]Ga-DOTA-TCTP-1 via the tail vein. PET data were acquired in a list-mode for 60 min, starting from the time of injection of [^68Ga]Ga-DOTA-TCTP-1. The images were reconstructed using an ordered-subset expectation maximization 2D algorithm with four iterations into 30 × 3 s, 9 × 10 s, 4 × 30 s, 5 × 60 s, and […] time frames. Immediately after the PET scan, 100 µL of intravascular iodinated contrast agent eXIATM160XL (Binitio Biomedical Inc., Ottawa, ON, Canada) was injected and high-resolution CT was acquired (80 kV, 500 μA). CT images were reconstructed using a Feldkamp-based algorithm, and images were analyzed using Carimas v.2.6 software (Turku PET Centre, Turku, Finland). ROIs were drawn in the aortic arch, blood pool (inside the LV cavity), and several relevant organs, according to the high-resolution CT image. Results are reported as the percentage of injected dose per gram (%ID/g) as a function of the time after injection, i.e., as time-activity curves.

[4] = system: MMP-2/9; settings: quoted with the dose of the commercial inhibitor; ref product number 444251, Merck KGaA; cited from earlier work

CC(C)C[C@@H]1NC(=O)[C@@H](NC(=O)[C@H](C)NC(=O)CN)CSSC[C@@H](C(=O)NCC(=O)NCCOCCOCCNC(=O)CN2CCN(CC(=O)O)CCN(CC(=O)O)CCN(CC(=O)O)CC2)NC(=O)CNC(=O)[C@H](CCCNC(=N)N)NC(=O)CNC(=O)[C@H](CO)NC(=O)[C@H](CCCNC(=N)N)NC1=O [[^68Ga]Ga-DOTA-TCTP-1, metal not drawn] (H-GACLRSGRGCG-X1; disulfide 3-10)
tissue uptake at 1 h ([1]; Aorta): 0.52 ± 0.25 %ID/g
tissue uptake at 1 h ([1]; Blood): 0.69 ± 0.21 %ID/g
tissue uptake at 1 h ([1]; Bone): 0.63 ± 0.5 %ID/g
tissue uptake at 1 h ([1]; Heart): 0.16 ± 0.066 %ID/g
tissue uptake at 1 h ([1]; Intestine): 0.43 ± 0.18 %ID/g
tissue uptake at 1 h ([1]; Kidneys): 8.9 ± 3.6 %ID/g
tissue uptake at 1 h ([1]; Liver): 3.2 ± 1.6 %ID/g
tissue uptake at 1 h ([1]; Lungs): 1.3 ± 0.74 %ID/g
tissue uptake at 1 h ([1]; Lymph node): 0.48 ± 0.19 %ID/g
tissue uptake at 1 h ([1]; Pancreas): 0.17 ± 0.056 %ID/g
tissue uptake at 1 h ([1]; Plasma): 1.5 ± 1 %ID/g
tissue uptake at 1 h ([1]; Salivary gland): 0.23 ± 0.07 %ID/g
tissue uptake at 1 h ([1]; Skeletal muscle): 0.17 ± 0.13 %ID/g
tissue uptake at 1 h ([1]; Spleen): 1.7 ± 1.3 %ID/g
tissue uptake at 1 h ([1]; Thymus): 0.23 ± 0.07 %ID/g
tissue uptake at 1 h ([1]; WAT (white adipose tissue)): 0.17 ± 0.11 %ID/g
tissue uptake at 1 h ([2]; LDLR-/-ApoB100/100, mouse, Bone): 0.53 ± 0.37 %ID/g
tissue uptake at 1 h ([2]; LDLR-/-ApoB100/100, mouse, Heart): 0.23 ± 0.083 %ID/g
tissue uptake at 1 h ([2]; LDLR-/-ApoB100/100, mouse, Intestine): 0.59 ± 0.22 %ID/g
tissue uptake at 1 h ([2]; LDLR-/-ApoB100/100, mouse, Kidneys): 8 ± 2.9 %ID/g
tissue uptake at 1 h ([2]; LDLR-/-ApoB100/100, mouse, Liver): 1.8 ± 0.48 %ID/g
tissue uptake at 1 h ([2]; LDLR^-/-ApoB^100/100, mouse, Aorta): 0.43 ± 0.19 %ID/g
tissue uptake at 1 h ([2]; LDLR^-/-ApoB^100/100, mouse, Blood): 1.3 ± 0.4 %ID/g
tissue uptake at 1 h ([2]; LDLR^-/-ApoB^100/100, mouse, Lungs): 2.8 ± 1.6 %ID/g
tissue uptake at 1 h ([2]; LDLR^-/-ApoB^100/100, mouse, Lymph node): 0.49 ± 0.15 %ID/g
tissue uptake at 1 h ([2]; LDLR^-/-ApoB^100/100, mouse, Pancreas): 0.35 ± 0.17 %ID/g
tissue uptake at 1 h ([2]; LDLR^-/-ApoB^100/100, mouse, Plasma): 2.6 ± 1.4 %ID/g
tissue uptake at 1 h ([2]; LDLR^-/-ApoB^100/100, mouse, Salivary gland): 0.38 ± 0.15 %ID/g
tissue uptake at 1 h ([2]; LDLR^-/-ApoB^100/100, mouse, Skeletal muscle): 0.19 ± 0.077 %ID/g
tissue uptake at 1 h ([2]; LDLR^-/-ApoB^100/100, mouse, Spleen): 1.9 ± 1.6 %ID/g
tissue uptake at 1 h ([2]; LDLR^-/-ApoB^100/100, mouse, Thymus): 0.35 ± 0.29 %ID/g
tissue uptake at 1 h ([2]; LDLR^-/-ApoB^100/100, mouse, WAT (white adipose tissue)): 0.17 ± 0.21 %ID/g
tissue uptake at 1 h ([3]; Radioactivity in myocardium (PET/CT)): 0.81 ± 0.3 %ID/g
tissue uptake at 1 h ([3]; Uptake in atherosclerotic aorta (PET/CT)): 0.77 ± 0.16 %ID/g
tissue uptake at 1 h ([3]; Uptake in blood pool (PET/CT)): 1.1 ± 0.64 %ID/g
tissue uptake at 1 h ([3]; Uptake in liver (PET/CT)): 4.7 ± 3.8 %ID/g

H-Cys^1-Thr-Thr-His-Trp-Gly-Phe-Thr-Leu-Cys^10-OH (cyclic: 1→10) (disulfide) [MMP-2/9 inhibitor]
IC50 [4]: 10 µM
